The assay has as its target Recombinant TGF-β receptor 2 protein (UniProt P37173). As to the kind of experiment: SPR; Biacore T200, 25 °C; TβR2 amine-coupled on a CM5 chip (50 µg/ml in 10 mM acetate pH 4.0); peptides in PBS injected at 60 µl/min, 180 s association, 540 s dissociation; 1:1 binding model.

Recombinant TGF-β receptor 2 protein, sequence (P37173 23-166): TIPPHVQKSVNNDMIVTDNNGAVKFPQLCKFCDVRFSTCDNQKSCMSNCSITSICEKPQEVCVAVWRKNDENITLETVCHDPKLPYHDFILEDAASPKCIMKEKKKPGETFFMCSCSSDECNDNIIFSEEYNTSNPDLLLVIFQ

KP12 (peptide): the koff stood at 0.00233 s⁻¹.

For the origin of these results see article PMC8782923, “A Klotho-derived peptide protects against kidney fibrosis by targeting TGF-β signaling” (Nature Communications, 2022).
